# This sample holds only a part of the variants without activity.
# B1: TPR 5TU (parent)
# chain: GGAUCUUCUCGAUCUAACAAAAAAGACAAAUCUGCCACAAAGCUUGAGAGCAUCUUCGGAUGCAGAGGCGGCAGCCUUCGGUGGCGCGAUAGCGCCAACGUUCUCAACUAUGACACGCAAAACGCGUGCUCCGUUGAAUGGAGUUUAUCAUG
# Variants of: B1
# Experiment: polymerase ribozyme fitness, log enrichment relative to wild type (log ratio); higher = more active; in vitro selection for triplet polymerase activity
# Method in brief: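 Mutant libraries of each subunit of a heterodimeric triplet polymerase ribozyme were built by PCR and transcribed. Each library went through one round of in vitro selection in triplicate: annealing with biotinylated primer, partner subunit and triplets, frozen incubation at −7 °C, gel excision of extended constructs, streptavidin-bead capture and RT-PCR. Input and output libraries were Illumina-sequenced; only genotypes with ≥10 input reads and ≥1 read per output were kept. Fitness is log2(genotype enrichment/wild-type enrichment), using inverse-variance-weighted replicate averages.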
row,Variant,polymerase ribozyme fitness (log ratio)
1,GGAUCUUCUCGAUCUAACAAAAAAGACAAAACUGCCACAAAGCUUCAGAGCAUCUUCGGAUGCAGAGGCGGCAGCCUUCGGUGGCGCGAUAGCGUCAACGUUCUCAACUAUGACACGCAAAACGCGUGCUCCGUUGAAUGGAGUUUAUCAUG [U31A G46C C95U],-1.57
2,GGAUCUUCUCGAUCUAACAAAAAAGACAAAACUGCCACAAAGCUUGAGAGCAUCUUCGGAUGCAUAGGCGGCAGCCUUCGGUGGCGCGAUAGGGCCAACGUUCUCAACUAUGACACGCAAAACGCGUGCUCCGUCGAAUGGAGUUUAUCAUG [U31A G65U C93G U135C],≤ -4.2
3,GGAUCUUCUCGAUCUAACAAAAAAGACAAAACUGCCACAAAGCUUGAGAGCAUCUUCGGAUGCAGAGGCGGCAGCCUUCGGUGACGCGAUAGCGCCAACAUUCUCAAGUAUGACACGCAAAAGGCGUGCUCCGUUGAAUGGAGUUUAUCAUG [U31A G84A G100A C108G C123G],≤ -4.2
4,GGAUCUUCUCGAUCUAACAAAAAAGACAAAACUGCCACAAAGCAUGAGAGCCUCUUCGGAUGCAGAGGCGUCAGCCUUCGGUCGCACGAUAGCGCCCACGUUCACAACUAUGACACGCAAAACGCGUGCUCCGUUGAAUGGAGUUUAUCAUG [U31A U44A A52C G71U G83C G86A A97C U104A],≤ -4.2
5,GGAUCUUCUCGAUCUAACAAAAAAGACAAAACUGCCACAAAGCAUGAGAGCAUCUUCGGAUGCAGAGACGGCAGCCUUCGAUGGCGCGAUAGCGCCAACGUUCGCAACUAUGACACGCAAAACGAGUGCUCCGUUGAAUGGAGUUUAUCAUG [U31A U44A G68A G81A U104G C125A],≤ -4.2
6,GGAUCUUCUCGAUCUAACAAAAAAGACAAAACUGCCACAAAGCUUGAGAGCAUCAUCGGAUGCAGAGGCGGCAGCCUUCGGUGGCGCGAUAGCGCCAACGUUCUCAACUAUGACACGCAAAACGCGUGCUCCGUUGAAUGGAGUUUGUCAUG [U31A U55A A147G],-0.55
7,GGAUCUUCUCGAUCUAACAAAAAAGACAAAACUGCCACAAAGCUUGAGAGCAUCUUCGGAUGCAGAGGCGGCAGCCUUCGGUGGCGCAAAAGCGCCAACGUUCUCAACUAUGACACGCAAAACGCGUGCUCCAUUGAAUGGAGUUUAUCAUG [U31A G88A U90A G133A],≤ -4.2
8,GGAUCUUCUCGAUCUAACAAAAAAGACAAAACUGCCACAAAGCUUGAGAGCAUCAUCGGAUGCAGAGGCGGCAGCCUUCGGUAGCGCGAUAGCGCCAACGUUCUCAACUAUGACACACAAAACGCGUGCUCCGUUGAAUGGAGUUUAUCAUG [U31A U55A G83A G117A],-0.253
9,GGAUCUUCUCGAUCUAACAAAAAAGACAAAACUGCCACAAAGCUUGAGAGCAUCUUCGCAUGCAGAGGCGGCAGUCUUCGGUGGCGCGAUUGCGCCAACGUUCUCAACGAUAACACGCAAAACGCGUGCUCCGUUGAAUGGAGUUUAUCAUG [U31A G59C C75U A91U U109G G112A],≤ -4.2
10,GGAUCUUCUCGAUCUAACAAAAAAGACAAAACUGCCACAAAGCUUGAGAGCAUCUUCGGAUGCAGAGGCGGCAGCCUUCGGUGGCGCGAUAGCGCUAACGUUCUCAACUAUGACCCGCAAAACGCGUGCUCCGUUGAAUGGAGUUCAUCAUG [U31A C96U A115C U146C],-0.845
11,GGAUCUUCUCGAUCUAACAAAAAAGACAAAACUGCCACAAAGCUUGAGAGCAUCUUCGGAUGCAGAGCCGGCAGCAUUCGGUGGAGCGAUAGCGCCAACGUUCUCAACUAUGACACGCAAAACGCGUGCUCCGUUGAAUGGAGUUUAUCAUG [U31A G68C C76A C85A],≤ -4.2
12,GGAUCUUCUCGAUCUAACAAAAAAGACAAAACUGCCACAAAGCUUGAGAGCAUCUUCGAAUGCAGAGGCGGCAGCCUUCGGUGACGCGAUAGCGCCAACGUGCUCAACUAUGACACGCAAAACGCGUCCUCCGUUGAAUGGCGUUUAUCAUG [U31A G59A G84A U102G G128C A142C],≤ -4.2
13,GGAUCUUCUCGAUCUAACAAAAAAGACAAAACUGCCACAAAGCUUGAGAGCAUCUUCGGAUGCAGAGGCGGCAGCCUUCGGUGGCGCGAUAGCACCAACGUUCUCAACUAUGACACGCAAAACGCGUGCUCCGUUGAAUGGAGUUUAUCAUG [U31A G94A],-0.349
14,GGAUCUUCUCGAUCUAACAAAAAAGACAAAACUGCCACAAAGCUUGAGAGCAGCUUCGGAUGCAGAGGCGGCAGCCUUCGGUGUCGCGAUAGCGCGAACGUUCUCAACUAUGACACGCAAAACGCGUGCUCCGUUGAAUGGAGUUUAUCAUG [U31A U53G G84U C96G],≤ -4.2
15,GGAUCUUCUCGAUCUAACAAAAAAGACAAAACUGCCACAAAGCUUGAGAGCAUCUUCGGAUGCAGAGGCGGCAGCCUUCGGUCGCGCGAUAGCGCCAACGUUCUUAACUAUGACACGCAAAACGCGGGCUCCAUUGCAUGGAGUUUAUCAUG [U31A G83C C105U U127G G133A A137C],≤ -4.2
16,GGAUCUUCUCGAUCUAACAAAAAAGACAAAACUGCCACAAAGCUUGAGAGCAUCUUCGGAUGCAGAGGCGGCAGCCUUCGGUGGCGCGAUAGCGGCAACGUUCUCAACUAUGACACGCAAAACGCGUGCACCGUUGAAUGGAGUUUAUCAUG [U31A C95G U130A],-3.43
17,GGAUCUUCUCGAUCUAACAAAAAAGACAAAACUGCCACAAAGCUAGCGAGCAUCUUCGGAUGCAGAGGCGGCAGCCUUCGGUGGCGCGAUAGUGCCAAGGUUCUCAACUAUGACACGCAAAACGCGUGCUCCGUAGAAUGGAGUUUAUCAUG [U31A U45A A47C C93U C99G U135A],≤ -4.2
18,GGAUCUUCUCGAUCUAACAAAAAAGACAAAACUGCCACAAAGCUUGAGAGCAACUUCGGAUGCAGAGUCGGCAGCCUUCGGUGGCGCGAUAGCGACAACGUUCUCAACUAUGACACGCAAAACGCGUGCUCCGUUGAAUGGAGUUUAUGAUG [U31A U53A G68U C95A C149G],≤ -4.2
19,GGAUCUUCUCGAUCUAACAAAAAAGACAAAACUGCCACAAAGCUAGAGAGCAUCUUCGGAUGCAGAGGCGGCAGCUUUCGGUGGUGCGAUAGUGCCAACGUUCUCAACUAUGACACGCAAAACGCGUGCUCCGUUUAAUGGAGUUUAUCCUG [U31A U45A C76U C85U C93U G136U A150C],≤ -4.2
